Measurements as given in patent US20120240246A1, “Variant Calpastatins and Variant Calpains for Modulating the Activity or Stability of Calpain” (St. Jude Children's Research Hospital, priority 2009, published 2012).

B1: calpastatin: 72 kDa endogenous calpain inhibitor with L domain and four 15-kDa inhibitory repeats (protein, listed as Rattus norvegicus)
chain: MESTLNKLSDKSGVNAALDDLIDTLGECEDTNKDDPPYTGPVVLDPMDSTYLEALGIKEGTIPPEYRKLLEKNEAITGPLPDSPKPMGIDHAIDALSSDFTCSSPTGKQTEKEKSTGESS

How the values were obtained:
calpain = details: human sequence; Betts & Anagli (2004); cited from earlier work
m-calpain = target: T1, m-calpain (Rattus norvegicus, UniProt Q07009); test: Calpastatin inhibition assay, hydrolysis by m-calpain; type: biochemical; details: FIG. 7 legend; concerted binding to peripheral domains and active site
T1 construct: diminishing activity >1,000-fold compared to full-length m-calpain; His6 (C); made in house; host or cells: E. coli
T1 sequence (Q07009 1-700): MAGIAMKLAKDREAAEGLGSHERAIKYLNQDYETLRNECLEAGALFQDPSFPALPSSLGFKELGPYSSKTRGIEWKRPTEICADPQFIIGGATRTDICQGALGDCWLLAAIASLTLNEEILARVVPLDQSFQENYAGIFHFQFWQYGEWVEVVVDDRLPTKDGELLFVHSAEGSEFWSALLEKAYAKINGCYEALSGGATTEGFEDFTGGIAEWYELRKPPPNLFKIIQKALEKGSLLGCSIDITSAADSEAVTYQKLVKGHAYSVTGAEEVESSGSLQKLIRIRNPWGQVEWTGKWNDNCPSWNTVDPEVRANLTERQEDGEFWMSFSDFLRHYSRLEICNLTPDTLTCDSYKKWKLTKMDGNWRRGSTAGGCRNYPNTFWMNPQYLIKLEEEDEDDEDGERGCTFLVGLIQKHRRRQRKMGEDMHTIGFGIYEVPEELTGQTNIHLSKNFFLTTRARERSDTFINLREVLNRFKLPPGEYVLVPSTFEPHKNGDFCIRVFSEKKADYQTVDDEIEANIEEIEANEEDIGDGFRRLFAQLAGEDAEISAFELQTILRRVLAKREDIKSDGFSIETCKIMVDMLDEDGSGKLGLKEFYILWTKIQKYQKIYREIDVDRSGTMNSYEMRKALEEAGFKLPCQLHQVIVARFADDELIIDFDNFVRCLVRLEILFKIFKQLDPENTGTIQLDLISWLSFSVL
T1 sequence (Q64537 87-270 partner limits assumed): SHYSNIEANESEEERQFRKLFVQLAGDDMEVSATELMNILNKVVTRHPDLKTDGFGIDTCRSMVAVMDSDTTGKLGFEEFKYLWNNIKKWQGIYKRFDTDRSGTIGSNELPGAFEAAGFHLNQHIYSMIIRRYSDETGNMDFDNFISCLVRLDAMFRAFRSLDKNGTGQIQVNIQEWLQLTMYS
Procedure: Calpastatin Inhibition Assays. Hydrolysis assays by m-calpain (1 nM or 20 nM), m-calpain mutants (1 nM) and μI-II (1.25-2.5 μM) were performed in 100-μl volumes containing 50 mM HEPES (pH 7.5), 200 mM NaCl, 1 mM DTT, various concentrations of substrate (0-1.5mM SLY-MCA (Sigma) or 0-50 μg/ml BODIPY-casein (Invitrogen)) and increasing inhibitor concentrations: 0-50 nM wild-type or mutant full-length calpastatin, fragments AB and BC, 0-20 μM peptide B1 for m-calpain, and 0-750 μM peptide B1 for μI-II. Duplicates or triplicates were performed for each condition in 96-well plates using a Molecular Devices microplate reader.

heterodimeric calpains = details: Wendt, et al. (2004); cited from earlier work

Row | Molecule | calpain inhibition when the intact 27-residue peptide is replaced by N- and C-terminal peptides (calpain) | inhibition of calpain (m-calpain) | affinity of inhibition of heterodimeric calpains (heterodimeric calpains)
1 | Asp^163-Gly^174: N-terminal peptide of the 27-residue region B peptide, human sequence (Betts & Anagli 2004) (TLGGPEETEEEN; UniProt P20810 163-174, looked up, fragment) | abolished | – | –
2 | B1 | – | low-nanomolar | nanomolar
